From patent US20250154278A1 (JANUX THERAPEUTICS, published 2025)
Residue numbers refer to the chain shown, from its start. Numbers in names are those of the source.

T1: Human TROP2 full length, on tumor cells (HCT116, MDAMB231, NCI-H292) (human, UniProt P09758 31-323)
T1 sequence: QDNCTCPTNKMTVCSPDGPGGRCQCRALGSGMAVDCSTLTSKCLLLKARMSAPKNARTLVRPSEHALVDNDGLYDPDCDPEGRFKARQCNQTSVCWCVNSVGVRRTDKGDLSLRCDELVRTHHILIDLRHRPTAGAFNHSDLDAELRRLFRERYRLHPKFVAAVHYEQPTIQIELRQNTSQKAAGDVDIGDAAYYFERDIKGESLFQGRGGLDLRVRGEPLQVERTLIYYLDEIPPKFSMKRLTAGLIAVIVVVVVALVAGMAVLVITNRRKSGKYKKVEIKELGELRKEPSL

T2: Cyno CD3 (Antigen was biotinylated for capture on neutravidin plates; the site of biotin and any tag are not stated.)
T2 construct: also called cynomolgus monkey CD3
T2 chain: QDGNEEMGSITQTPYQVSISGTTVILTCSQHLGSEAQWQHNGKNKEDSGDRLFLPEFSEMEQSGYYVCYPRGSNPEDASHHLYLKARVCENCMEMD

T3: Human TROP2 ECD (31-274 AA), biotinylated (human, UniProt P09758 31-274, biotinylated (site not stated))
T3 construct: the entry is already residues 31-274; also called Human TROP2-biotin; hTROP2-Biotin
T3 sequence: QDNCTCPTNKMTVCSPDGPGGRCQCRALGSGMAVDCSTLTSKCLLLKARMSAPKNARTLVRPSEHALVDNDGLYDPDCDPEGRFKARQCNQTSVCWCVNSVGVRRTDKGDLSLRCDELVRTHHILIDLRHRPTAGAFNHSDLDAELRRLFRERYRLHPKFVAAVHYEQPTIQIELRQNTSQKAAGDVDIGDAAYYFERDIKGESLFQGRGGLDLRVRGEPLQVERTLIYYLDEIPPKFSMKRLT

T4: Cynomolgus monkey TROP2 full length, on recombinant HEK293 cells (cynomolgus monkey, UniProt P09758 31-323 (human entry))
T4 chain: T1 sequence with M32V, S63N, I200V, M262V, T268S

B1: TCE-37 (anti-CD3 scFv wt, anti-TROP2 HC F108A) (bispecific antibody)
light: DIQLTQSPSSLSASVGDRVSITCKASQDVSIAVAWYQQKPGKAPKLLIYSASYRYTGVPDRFSGSGSGTDFTLTISSLQPEDFAVYYCQQHYITPLTFGAGTKVEIKRTVAAPSVFIFPPSDEQLKSGTASVVCLLNNFYPREAKVQWKVDNALQSGNSQESVTEQDSKDSTYSLSSTLTLSKADYEKHKVYACEVTHQGLSSPVTKSFNRGEC
heavy: not shown
B2: TCE-27 (anti-CD3 scFv W233A, anti-TROP2 wt) (bispecific antibody)
light: B1 light
heavy: not shown
B3: TCE-32 (anti-CD3 scFv W238A, anti-TROP2 wt) (bispecific antibody)
light: B1 light
heavy: not shown
B4: TCE-46 (bispecific antibody)
light chain (anti-TROP2 LC wt): B1 light
heavy chain (anti-CD3 scFv F240A + linker + anti-TROP2 D109A HC): not shown
notes: also called anti-CD3 scFv (F240A) + linker + anti-TROP2 (D109A) HC; anti-TROP2 LC wt
B5: TCE-42 (anti-CD3 scFv with N30Q, I109V, G172A, V231A; anti-TROP2 HC F108A) (bispecific antibody)
light: B1 light
heavy: not shown
B6: TCE-43 (anti-CD3 scFv wt, anti-TROP2 HC D109A) (bispecific antibody)
light: B1 light
heavy: not shown
B7: TCE-38 (anti-CD3 scFv H101A, anti-TROP2 HC F108A) (bispecific antibody)
light: B1 light
heavy: not shown
B8: TCE-1 (TROP2 Fab x SP34.185 scFv, non-mutated, scFv on the Fab HC) (bispecific antibody)
light: B1 light
heavy: not shown
B9: TCE-8 (TROP2 Fab HC D109A TCE, scFv on the Fab HC) (bispecific antibody)
light: B1 light
heavy: not shown
B10: TCE-6 (TROP2 Fab HC R98A TCE, scFv on the Fab HC) (bispecific antibody)
light: B1 light
heavy: not shown
B11: TCE-2 (TROP2 Fab x SP34.185 scFv, non-mutated, scFv on the Fab LC) (bispecific antibody)
light: not shown
heavy: QVQLQQSGSELKKPGASVKVSCKASGYTFTNYGMNWVKQAPGQGLKWMGWINTYTGEPTYTDDFKGRFAFSLDTSVSTAYLQISSLKADDTAVYFCARGGFGSSYWYFDVWGQGSLVTVSSASTKGPSVFPLAPSSKSTSGGTAALGCLVKDYFPEPVTVSWNSGALTSGVHTFPAVLQSSGLYSLSSVVTVPSSSLGTQTYICNVNHKPSNTKVDKKVEPKSC
B12: TCE-5 (TROP2 Fab HC D109A TCE, scFv on the Fab LC) (bispecific antibody)
light: not shown
heavy: B11 heavy with D109A
B13: TCE-3 (TROP2 Fab HC R98A TCE, scFv on the Fab LC) (bispecific antibody)
light: not shown
heavy: B11 heavy with R98A
B14: TCE-26 (anti-CD3 scFv L232A, anti-TROP2 wt) (bispecific antibody)
light: B1 light
heavy: not shown
B15: TCE-31 (anti-CD3 scFv R237A, anti-TROP2 wt) (bispecific antibody)
light: B1 light
heavy: not shown
B16: TCE-30 (anti-CD3 scFv N236A, anti-TROP2 wt) (bispecific antibody)
light: B1 light
heavy: not shown
B17: TCE-29 (anti-CD3 scFv S235A, anti-TROP2 wt) (bispecific antibody)
light: B1 light
heavy: not shown
B18: TCE-22 (anti-CD3 scFv Y111A, anti-TROP2 wt) (bispecific antibody)
light: B1 light
heavy: not shown
B19: TCE-25 (anti-CD3 scFv V231A, anti-TROP2 wt) (bispecific antibody)
light: B1 light
heavy: not shown
B20: TCE-28 (anti-CD3 scFv Y234A, anti-TROP2 wt) (bispecific antibody)
light: B1 light
heavy: not shown
B21: TCE-33 (anti-CD3 scFv V239A, anti-TROP2 wt) (bispecific antibody)
light: B1 light
heavy: not shown
B22: TCE-36 (anti-CD3 scFv with N30Q, I109V, G172A, V231A; anti-TROP2 wt) (bispecific antibody)
light: B1 light
heavy: not shown
B23: TCE-35 (anti-CD3 scFv with P41S, A49G, N87S, L150F, T151S, G163R, P175A, K181T, T200V, A202D, L208I, G211N, L217I, S218T, V220A, P222A, E223D, A226S, E227D; … (bispecific antibody)
light: B1 light
heavy: EVQLVESGGGLVQPGGSLKLSCAASGFTFNKYAMNWVRQASGKGLEWVGRIRSKYNNYATYYADSVKDRFTISRDDSKNTAYLQMNSLKTEDTAVYYCVRHGNFGNSYISYWAYWGQGTLVTVSSGGGGSGGGGSGGGGSQTVVTQEPSFSVSPGGTVTLTCRSSTGAVTSGNYANWVQQTPGQAPRGLIGGTKFLAPGVPDRFSGSILGNKAALTITGAQADDESDYYCVLWYSNRWVFGGGTKLTVLGGGGSQVQLQQSGSELKKPGASVKVSCKASGYTFTNYGMNWVKQAPGQGLKWMGWINTYTGEPTYTDDFKGRFAFSLDTSVSTAYLQISSLKADDTAVYFCARGGFGSSYWYFDVWGQGSLVTVSSASTKGPSVFPLAPSSKSTSGGTAALGCLVKDYFPEPVTVSWNSGALTSGVHTFPAVLQSSGLYSLSSVVTVPSSSLGTQTYICNVNHKPSNTKVDKKVEPKSC

What follows are binders tested against T1, Human TROP2 full length, on tumor cells … (assay: cell-based or functional assay).

Binder | HCT116 Cytotox EC50 [pM]
B1 | 109

Molecular target: T1, Human TROP2 full length, on tumor cells …
Assay: cell-based or functional assay
Remark: another data set of the same source

Binder | H292 Cytotox EC50 [pM]
B2 | > 1000
B3 | > 1000

These binders were tested against T5, human CD3 epsilon, biotinylated (human, UniProt P07766 23-126, limits assumed, biotinylated (site not stated)) (assay: CD3 binding ELISA).
T5 construct: Printed in places as CD36, CD38, CD3c or CD3&; also called CD3e-bio; human CD3e-biotin
T5 sequence (P07766 23-126 limits assumed): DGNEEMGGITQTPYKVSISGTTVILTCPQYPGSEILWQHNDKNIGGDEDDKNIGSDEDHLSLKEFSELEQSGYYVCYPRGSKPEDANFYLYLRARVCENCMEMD

Binder | EC50 [pM]
B4 | 1100

Molecular target: T2, Cyno CD3
Assay: Cyno CD3 binding ELISA

Binder | EC50 [pM]
B5 | 354
B1 | 184

What follows are binders tested against T3, Human TROP2 ECD (31-274 AA), … (assay: TROP2 binding ELISA, biotinylated TROP2 on neutravidin plates).

Binder | EC50 [pM]
B6 | 1070
B7 | 1280
B1 | 1150

Molecular target: T1, Human TROP2 full length, on tumor cells …
Assay: cell-based or functional assay
Remark: another data set of the same source

Binder | TCE Cytotoxicity EC50, H292 + CD8+ T cells [pM] | TCE Cytotoxicity EC50, HCT116 + CD8+ T cells [pM] | TCE Cytotoxicity EC50, MDAMB231 + CD8+ T cells [pM]
B8 | 1.3 | 28.6 | 12
B9 | 4 | 83 | 26
B10 | 6.3 | 142 | 77.2
B11 |  | 1.6 | 1.2
B12 | 0.2 | 5.8 | 2.6
B13 | 0.4 | 22 | 7.7

The binders below were run against T5, human CD3 epsilon, biotinylated (assay: BLI, CD3e-biotin on sensor, 50 nM TCE).

Binder | Kd [pM] | Response
B14 | 8390 | 0.663
B15 | 6510 | 0.728
B16 |  | 0.65
B17 | 3410 | 0.682
B18 |  | -0.0009
B19 | 6260 | 
B2 | 12300 | 0.414
B3 | 31000 | 0.0683
B20 | 11100 | 0.674
B21 |  | 0.742
B22 | 9110 | 0.931

Molecular target: T1, Human TROP2 full length, on tumor cells …
Assay: cell-based or functional assay
Remark: another data set of the same source

Binder | H292 Cytotox EC50 [pM]
B23 | 0.5
B22 | 2.1

Molecular target: T4, Cynomolgus monkey TROP2 full length, on …
Assay: cell-based or functional assay

Binder | CynoTROP2 + HEK293 cells Cytotox EC50 [pM]
B6 | 0.1
B1 | 0.2

These binders were tested against T5, human CD3 epsilon, biotinylated (assay: BLI, CD3e-biotin on sensor (summary)).

Binder | CD3 Octet response | CD3 t1/2 [min] | Kd [pM]
B14 | 0.66 | 2.64 | 8390
B15 | 0.73 | 2.67 | 6510
B16 | 0.65 | 2.45 | 
B17 | 0.68 | 3.64 | 3410
B19 |  | 2.96 | 6260
B2 |  | 6.45 | 12300
B3 | 0.07 |  | 31000
B20 | 0.67 | 1.66 | 11100
B21 | 0.74 | 4.26 | 

Molecular target: T1, Human TROP2 full length, on tumor cells …
Assay: cell-based or functional assay
Remark: another data set of the same source

Binder | H292 Cytotox EC50 [pM]
B6 | 1
B1 | 5
